Results from publication PMC5596348.

Columns and labels:
[1] = molecular target: streptolysin O (Streptococcus pyogenes (group A Streptococcus), strain 854) (UniProt P0C0I3); assay: BLI; […] (Octet RED384), […]; 20 mM Tris, 300 mM NaCl, 0.01% Tween 20, 1 mM DTT, pH 7.4; 30°C; […]
[2] = molecular target: streptolysin O (Streptococcus pyogenes (group A Streptococcus), strain 854) (UniProt P0C0I3); assay: […]; PBS, 1 mM DTT, pH 7.4; room temperature
[3] = molecular target: streptolysin O (Streptococcus pyogenes (group A Streptococcus), strain 854) (UniProt P0C0I3); assay: […], room temperature; […], pH 7.4; […]

| Substance | Kd [1] | stoichiometry N [2] | stoichiometry N [3] |
| --- | --- | --- | --- |
| NAD+-glycohydrolase, full-length (enzyme) | 2.58 µM | 1 | 1 |
| 190NADase, C-terminal glycohydrolase (catalytic) domain of NADase (domain or fragment) | 20.7 µM | – | – |
